Assay results published in patent US20220275059A1 (HARBOUR ANTIBODIES, published 2022).

Experiments:
[1] = molecular target: T1, MERS-CoV S S1 subunit (MERS-S1) (MERS-CoV EMC isolate, UniProt K9N5Q8 19-748); test: see FIG. 29A
[2] = molecular target: T1, MERS-CoV S S1 subunit (MERS-S1); test: MERS-S1 specific ELISA

Row | Binder | binding result [1] | binding result [2]
1 | 7.8h1 (antibody, V domains shown) VH: QVQLVQSGAEVKKPGASVKVSCKASGYTFTSYDINWVRQATGQGLEWMGWMNPISGNTGYAQKFQGRVTMTRNTSRSTAYMELSSLRSEDTAVYYCARGQWLFDYWGQGTLVTVSS VL: DIQMTQSPSTLSASIGDRVTITCRASQTISSWLAWYQQKPGKAPKLLIYKASSLESGVPSRFSGSGSGTEFTLTISSLQPDDFATYYCQQYNFYSYTFGQGTKLEIRR | binds | 
2 | 5F1 heavy chain-only antibody (antibody, V domains shown) VH: EVQLVESGGGLVQPGGSLRLSCAASGFTFSSYWMHWVRQAPGKGLVWVSRINSDGSSTSYADSVKGRFTISRDNAKNTLYLQMNSLRAEDTAVYYCGNPYFDYWGQGTLVTVSS |  | binds
